Results as given in PMC2995173.

Target: HA-Rad18 S-Box-A (human) (UniProt Q9NS91)
Test: co-IP

## DNA Polymerase eta (Polη) (from UniProt Q9Y253 1-713) (natural protein)
  percent reduction of association relative to Rad18 WT (UV-treated cells): > 80%
